# Measurements published in the nanobody polyreactivity screen of Harvey et al. (2022).
# Assay: yeast display, Sf9 membrane polyspecificity reagent, FACS + sequencing; frameworks hold sequencing errors
# Outline: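 Galactose-induced (36–48 hours) yeast carrying a synthetic nanobody display library were exposed to 10% biotinylated, detergent-solubilized Sf9 membrane reagent at 4 °C for 1 hour. FACS followed streptavidin microbead enrichment, using low and high (top ~1%) gates for expression (anti-HA) and reagent binding (streptavidin). Colony PCR, MiSeq 2 × 250 sequencing and CDR-length filtering followed. Labels for polyreactivity reflect the gate of origin.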
row,Sequence,polyreactivity (PSR sort gate)
1,QVQLVESGGGLVQAGGSLRLSCAASGRIFQEYAMGWYRQAPGKERELVAAISSGGGSTYYADSVKGRFTISRDNAKNTVYLQMNSLKPEDTAVYYCAARVYIAYISMDHWGQGTQVTVSS,low polyreactivity
2,QVQLVESGGGLVQAGGSLRLSCAASGRIFQGYAMVWYRQAPGKERELVARITSGSNTNYADSVKGRFTISRDNAKNTVYLQMNSLKPEDTAVYYCAKEPVGSVRYGRFQQDDYWGQGTQVTVSS,low polyreactivity
3,QVQLVESGGGLVQAGGSLRLSCAASGRIFQGYVMGWYRQAPGKERELVAVISRRGGITNYADSVKGRFTISRDNAKNTVYLQMISLKPEDTAVYYCNDVTRVYNNGQYGYWGQGTQVTVSS,high polyreactivity
4,QVQLVESGGGLVQAGGSLRLSCAASGRIFQIYAMGWYRQAPGKERELVAAIRSGSNTNYADSVKGRFTISRDNAKNTVYLQMNSLKPEDTAVYYCAADGWYSAVGVWLEYDYWGQGTQVTVSS,low polyreactivity
5,QVQLVESGGGLVQAGGSLRLSCAASGRIFQIYAMGWYRQAPGKERELVAAIRSGSNTNYADSVKGRFTISRDNAMNTVYLQMNSLKPEDTAVYYCNALYTSLRKYNYWGQGTQVTVSS,low polyreactivity
6,QVQLVESGGGLVQAGGSLRLSCAASGRIFQIYAMGWYRQAPGKERELVAAISNRGGSTYYADSVKVRFTISRDNAKNTVYLQMNSLKPEDTAVYYFNATTGYGGYNYWGQGTKVTVSS,low polyreactivity
7,QVQLVESGGGLVQAGGSLRLSCAASGRIFQKYAMGWYRQAPGKERELGAAISSGDSTYADSVKGRFTISRDNAKNTVYLQMNSLKPEDTAVYYCAVDLYDPWWYSYIGEYEYWGQGTQVTVSS,low polyreactivity
8,QVQLVESGGGLVQAGGSLRLSCAASGRIFQNYALGWYRQAPGKERELVATISSGVSTYYADSVKGRFTISRDNAKNTVYLQMNSLKPEDTAVYYCAAYVPWFEMDYWGQGTQVTVSS,low polyreactivity
9,QVQLVESGGGLVQAGGSLRLSCAASGRIFQPNVMGWYRPAPGKERELVAAIRSGSSTYYADSVKGRFTISRDNAKYTVYLQMNCLKPEDTAVYFCATRYRKQYKPYEYWGQGTQVTVSS,high polyreactivity
10,QVQLVESGGGLVQAGGSLRLSCAASGRIFQRNAMGWYRQAPGKERELVAAITSTGVRTYYADSVKGRFTISRDNAKNTVFLQMNSLNPEDTAVYYCAVRGERRYYGSKEDYWGQGTQVTVSS,high polyreactivity
11,QVQLVESGGGLVQAGGSLRLSCAASGRIFQRYAMGWSRQAPGKERELVAPISWSVSSTYYADSVKGRFTISRDNAKNTVYLQMNSLKPEDTAVYYCNAAFHVTLGYLYREYDYWGQGTQVTVSS,high polyreactivity
12,QVQLVESGGGLVQAGGSLRLSCAASGRIFQRYAMGWYRQAPGKERELVAAISSRGGRTFYADSVKGRFTISRDNAKNTVYLQMNSLKPEDTAAYYCAATATVGSVTFDYWGQGTQVTVSS,high polyreactivity
13,QVQLVESGGGLVQAGGSLRLSCAASGRIFQWNTMGWYRQAPGKEREFVAAISGSGVSTYYADSVKGRFTISRDNAKNTVYLQMNSLKPEDTAVYYCATTYPAYGRRGYDYWGQGTQVNVSS,high polyreactivity
14,QVQLVESGGGLVQAGGSLRLSCAASGRIFQYNAMGWYRQAPGKERELVAAIRRGGGSTYYADSVKGRFTISRDNAKNTVYLQMNSLKPEDTAVYYCAADASSQIWYYPRDDYWGQGTQVTVSS,low polyreactivity
15,QVQLVESGGGLVQAGGSLRLSCAASGRIFQYYAMGWYRQAPGKERELVAAISGRGTSTYYADSVKGRFTISRDNAKNTVYLQMNRLKPEDTAVYYCNADINYKSYFIHTFTIIPYGYWGQGTLVTVSS,low polyreactivity
16,QVQLVESGGGLVQAGGSLRLSCAASGRIFQYYAMGWYRQAPGKERELVAAITSGGRTTYADSVKGRFTISRDNAKNTVYLQMNSLKPEVTAVYYCNAKTWYSYNYWGQGTQVTVSS,high polyreactivity
17,QVQLVESGGGLVQAGGSLRLSCAASGRIFQYYVMGWYRQAPGKERELVARITYIGGGTYYADSVKGRFTMSRDNAKNTVYLQMNSLKPEDTAVYYWYARYPWREWEDDYWGQGTQVTVSS,low polyreactivity
18,QVQLVESGGGLVQAGGSLRLSCAASGRIFRANAMGWYRQAPGKERELVAGITRRGGSTNYADSVKGRFTISRDNAKTTVYLQMNSLKPEDTAVYYCNRDVSLSTSIRMDYWGQGTQVTVSS,low polyreactivity
19,QVQLVESGGGLVQAGGSLRLSCAASGRIFRDYAMGAYRPAPGKERELGATITRSGGRTYYADSVKGRFTISRDNAKNTVYLQMNSLKPEDTAVYYCAARWRIVSGRFDYWGQGTQVTVSS,high polyreactivity
20,QVQLVESGGGLVQAGGSLRLSCAASGRIFRDYAMGWYRQAPGKERELVAAIRSVGNTNYADSVKGRFTISRDNAKNTVYLQMNSLKPEDTAVYYCNRQGSDFSRQAIGDFRFDYWGQGTQVTVSS,low polyreactivity
21,QVQLVESGGGLVQAGGSLRLSCAASGRIFRDYAMGWYRQAPGKETELVATITWSGATTYYADSVKGRFTISRDNAKNTVYLQMNSLKPEDTAVYYCNTDTDVDVAFDSWGQGTQVTVSS,low polyreactivity
22,QVQLVESGGGLVQAGGSLRLSCAASGRIFRDYVMGWYRQAPGKERELVAAISRGGSTYYADSVKGRFTISRDNAKNTVYLQMNSLKPEDTAVYYCAASWRSYSQLDYYWGQGTQVTVSS,high polyreactivity

row,Sequence,polyreactivity (PSR sort gate)
1,QVQLVESGGGLVQAGGSLRLSCAASGRIFRFYAIGAYRQAPGKERELVAVISTGGSTNYADSVKGRFTISRDNAKNTVYLQMNSLKPEDTAVYYCAKRKQSWGPGYSYYSSQYSMDYWGQGTLVTVSS,high polyreactivity
2,QVQLVESGGGLVQAGGSLRLSCAASGRIFRFYAMGWYRQAPGKERELVAAISWRGGRTYYADSVKGRFTISRDNAKNTVYLQMNSLKPEDTAVYYCNADKYETSGWKYDSWGQGTQVTVSS,low polyreactivity
3,QVQLVESGGGLVQAGGSLRLSCAASGRIFRFYAMGWYRQAPGKERELVAAITRNVGSTFYADSVKGRFTISRDNAKNTVYLQMNSLKPEDTAVYYCAAESDYYYRYTFDYWGQGTQVTVSS,low polyreactivity
4,QVQLVESGGGLVQAGGSLRLSCAASGRIFRFYAMGWYRQAPGKETELVATINSGVGRTYYADSVKGRFTISRDNAKNTVYLQFNSLKPEDTAVYYCAAEKRSYPQSYYYWGQGTQVTVSS,high polyreactivity
5,QVQLVESGGGLVQAGGSLRLSCAASGRIFRGNAMGWYRQARGKERELVAGISVRGGRTYYADSVKGRFTISRDNAKNTVYLQMNSLKPEDTAVYYCAAVFWDDYGKYYYWGQGTQVTVSS,high polyreactivity
6,QVQLVESGGGLVQAGGSLRLSCAASGRIFRGYAMGWYRQAPGKERELVAAIDTDTGITYYADSVKGRFTISRDNAKNTVYLQMNSLKPEDTAVYYCAAETYYAVSTGYYFDYWGQGTQVTVSS,high polyreactivity
7,QVQLVESGGGLVQAGGSLRLSCAASGRIFRGYAMGWYRQAPGKERELVAAISGSGGSTYYADSVKGRFTISRDNAKNTVYLQMNSLKPEDTAVYYCNAGWYFYGETTDDYWGQGTQVTVSS,low polyreactivity
8,QVQLVESGGGLVQAGGSLRLSCAASGRIFRGYAMGWYRQAPGKERELVAAITTNGGSTYADSVKGRFTISRDNAKNTVYLQMNSLKPEDTAVYYCAARRVGWARGSGNYDYWGQGTQVTVSS,low polyreactivity
9,QVQLVESGGGLVQAGGSLRLSCAASGRIFRGYAMGWYRQAPGKERELVATINASGGTTYYADSVKGRFTISRDNAKNTVYLQMNSLKPEDTAVYYCNARYRRFFSGYGYWGQGTQVTVSS,high polyreactivity
10,QVQLVESGGGLVQAGGSLRLSCAASGRIFRINAMGWYRQAPGKERELVATITSGGGSTYADSVKGRFTISRDNAKNTVYLQMNSLKPEDTAVYYCAARSRIGRYTYDYWGQGTQVTVSS,high polyreactivity
11,QVQLVESGGGLVQAGGSLRLSCAASGRIFRIYAMGWYRQAPGKERELVASITWRGGRTYYADSVKGRFTISRDNAKNTVYLQMNSLKPEDTAVYYCAATSSTSYYWGQGTQVTVSS,high polyreactivity
12,QVQLVESGGGLVQAGGSLRLSCAASGRIFRKYTMGWYRQAPGKERELVAAISRNGGDTYYADSVKGRFTISRDNAKNTVYLQMNSLKPEDTAVYYCNARTPTDSTHFDYWGQGTQVTVSS,low polyreactivity
13,QVQLVESGGGLVQAGGSLRLSCAASGRIFRLYAMGWYRQAPGKERELVAAIRVSGNTYYADSVKGRFTISRDNAKNTVYLQMNSLKPEDTAVYYCAAKPYYFYGMDYWGQGTQVTVSS,high polyreactivity
14,QVQLVESGGGLVQAGGSLRLSCAASGRIFRLYAMGWYRQAPGKERELVAAITSSGSSTYYADSVKGRFTISRDNAKNTVSLQMNSLKPEDTAVYYCNARYTYPYHFGYWGQGTQVTVSS,high polyreactivity
15,QVQLVESGGGLVQAGGSLRLSCAASGRIFRNTMGWYIQAPGKERELVAAITDTTDSTYYADSVKGRFTISRDNAKNTVYLQMYSLKPEDTAVYYCAARYGGYVNRPYYYWGQGTQVTVSS,low polyreactivity
16,QVQLVESGGGLVQAGGSLRLSCAASGRIFRPNAMGWYRQAPGKERELVAAMTSGGSTNYADSVKGRFTISRDNAKNTVYLQMNSLKPEDTAVYYCAKGYKYGKNIYYYWGQGTQVTVSS,high polyreactivity
17,QVQLVESGGGLVQAGGSLRLSCAASGRIFRPYAMGWYRQAPGKERELVAAITQSGGITSYADSVKGRFTISRDNAKYTVYLQMNSLKPEDTAVYYCAADDFTTAGFGMDYWGEGTQVTVSS,low polyreactivity
18,QVQLVESGGGLVQAGGSLRLSCAASGRIFRPYTMGWYRQAPGKEWELVAAISIGGRTYYADSVKGRFTISRDNAKNTVYLKMNSLKPEDTAVYYCAAVGGSDRRARPGRAVDYWGQGTQVTVSS,high polyreactivity
19,QVQLVESGGGLVQAGGSLRLSCAASGRIFRRKTMGWYRQAPGKERELVAAITSRGGSTYYADSVKGRFTISRDNAKNTFYLKMNSLIPEDTGFYYCNTRVVPEIYDYWGQGSQVTVSS,high polyreactivity
20,QVQLVESGGGLVQAGGSLRLSCAASGRIFRRNTMGWYRQAPGIERELVAAITSSGGSTYADSVKGRFTISRDNAKNTVYLQMNSLKPEDTAVYYCATYVAYHRGYRTYDHWGQGTQVTVSS,low polyreactivity
21,QVQLVESGGGLVQAGGSLRLSCAASGRIFRRYAMGWYRQAPGKERELVAAISSGGGSTYYADSVKGRFTISRDNAKNTVYLQMNSLKPEDTAVYYCNTDFYYDDVSQAHDYWGQGTQVTVSS,high polyreactivity
